Data as given in ChEMBL document CHEMBL1122067, “Species- or isozyme-specific enzyme inhibitors. 4. Design of a two-site inhibitor of adenylate kinase with isozyme selectivity” (J Med Chem, 1982).

What was measured:
[1] = compound: CCSc1nc2c(N)ncnc2n1[C@@H]1O[C@H](COP(=O)(O)O)[C@@H](O)[C@H]1O; test: Inhibitory constant of rat adenylate kinase (AK II) isozymes expressed as relative maximal velocity
[2] = compound: CC(=O)NCCCCCCCCNc1ncnc2c1ncn2C1O[C@H](COP(=O)(O)O)[C@@H](O)[C@H]1O; test: (§1) Inhibitory constant of rat adenylate kinase (AK III) isozymes expressed as relative maximal velocity
[3] = compound: CCCCN(CCCC)c1ncnc2c1ncn2C1O[C@H](COP(=O)(O)OP(=O)(O)OP(=O)(O)O)[C@@H](O)[C@H]1O; test: as §1
[4] = compound: CCCCNc1ncnc2c1ncn2C1O[C@H](COP(=O)(O)OP(=O)(O)OP(=O)(O)O)[C@@H](O)[C@H]1O; test: as §1
[5] = compound: CCCCSc1ncnc2c1ncn2C1O[C@H](COP(=O)(O)OP(=O)(O)OP(=O)(O)O)[C@@H](O)[C@H]1O; test: as §1
[6] = compound: Nc1ncnc2c1ncn2[C@@H]1O[C@H](COP(=O)(O)O)[C@@H](O)[C@H]1O; test: as §1
[7] = compound: O=C(CI)NCCCCCNc1ncnc2c1ncn2C1O[C@H](COP(=O)(O)OP(=O)(O)OP(=O)(O)O)[C@@H](O)[C@H]1O; test: as §1
[8] = substrate: CC(=O)NCCNc1ncnc2c1ncn2C1O[C@H](COP(=O)(O)O)[C@@H](O)[C@H]1O; test: Rat Adenylate kinase III and maximal velocity was determined
[9] = substrate: CCCCNc1ncnc2c1ncn2C1O[C@H](COP(=O)(O)OP(=O)(O)OP(=O)(O)O)[C@@H](O)[C@H]1O; test: (§2) Concentration for half-maximal velocity for adenylate kinase (AK III) was determined
[10] = substrate: CCCCSc1ncnc2c1ncn2C1O[C@H](COP(=O)(O)OP(=O)(O)OP(=O)(O)O)[C@@H](O)[C@H]1O; test: as §2
[11] = substrate: Nc1ncnc2c1ncn2[C@@H]1O[C@H](COP(=O)(O)O)[C@@H](O)[C@H]1O; test: as §2
[12] = substrate: O=C(CI)NCCCCCNc1ncnc2c1ncn2C1O[C@H](COP(=O)(O)OP(=O)(O)OP(=O)(O)O)[C@@H](O)[C@H]1O; test: as §2

B1: GTP:AMP phosphotransferase AK3, mitochondrial (Rattus norvegicus), P29411 (protein)
chain: MGASGRLLRAVIMGAPGSGKGTGSSRITKHFELKHLSSGDLLRQNMLQGTEIAVLAKSFIDQGKLIPDDDMTRLALHELKNLTQCSWLLDGFPRTLPQAEALDRVYQIDTVINLNVPFEVIKLRLTARWIHPASGRVYNIEFNPPKTVGIDDLTGEPLIQREDDKPETVIKRLKAYEAQTEPVLQYYQKKGVLETFSGTETNKIRPHVYSFLQMKVPETIQKASVTP
B1 showed a Vmax [1] of 0%, a Vmax [2] of 0% and a Vmax [3] of 0%. It also gave a Vmax [4] of 25%, a Vmax [5] of 57% and a Vmax [6] of 100%. The Vmax [7] was 9%, the Vmax [8] was 0% and the Km [9] was 1200 µM. For the same protein, the Km [10] was 1450 µM, the Km [11] was 90 µM and the Km [12] was 400 µM.
